According to publication PMC12173945, “Import mechanism of peroxisomal proteins with an N-terminal signal sequence” (Nature Cell Biology, 2025):

Key:
[1] = system: PEX7–GFP influx into YG hydrogel; assay: Influx of PEX7–GFP into YG hydrogel in the presence of PEX39 (Fig. 6f-i); format: biochemical, yeast; settings: for Percent PEX7-GFP influx (+ PTS2 peptide + PEX5-21) / Percent PEX7-GFP influx (+ PTS2 peptide + PEX5S) / Percent PEX7-GFP influx: 60 min; for Percent PEX7-GFP influx: PEX7-GFP without PTS2 peptide/PEX5
Method: Fig. 6 PEX39 can extract PEX7 from the YG phase. a, YG hydrogels were prepared in a glass-bottomed dish and pre-equilibrated with PEX7–GFP. PEX39 was then added to the buffer and a point-scanning confocal microscope was used to follow the PEX7–GFP fluorescence over time. b, PEX7–GFP signal in the gel over time at the indicated molar ratios of wild-type PEX39 (relative to PEX7). The mean (bold line) and range (shading) of three experiments are shown. c, As in b using a fourfold excess of wild-type (WT) PEX39 or mutants harbouring alanines in place of the APH (∆APH), the RPWE motif (∆RPWE) or both (∆APH + ∆RPWE). d, As in b using PEX7–GFP or PEX5–GFP and a fourfold excess of wild-type PEX39. e, As in b using a fourfold excess of PTS2 peptide and the PEX7-binding chimaeric receptor PEX5-21 (left) or PTS2 peptide and the non-PEX7-binding receptor isoform PEX5S (right). Wild-type PEX39 was titrated as indicated. f, YG hydrogel droplets were incubated with PEX7–GFP in the presence of PEX39. The effect of PEX39 on the influx of PEX7–GFP into the gel was then assessed using a point-scanning confocal microscope. g, PEX7–GFP influx in the presence of the indicated molar ratios of wild-type PEX39 (relative to PEX7) with or without a fourfold excess of PTS2 peptide and either PEX5S or PEX5-21. The mean (bars) and individual values (circles) of three experiments are shown. h, As in g using PEX7–GFP or PEX5–GFP and the indicated molar ratios of wild-type PEX39. i, As in g using wild-type PEX39 or the indicated mutants. Source numerical data are provided. Source data
A solution of the purified wild-type YG-domain polypeptide (or the variant lacking the KPWE motif) was concentrated to 2 mM in 50 mM HEPES·NaOH pH 7.8 at RT, 2 M urea and 2 mM TCEP. Aliquots of 2 µl were then spotted on the bottom of multiple wells of a 96-well glass-bottomed plate (Cellvis, P96-1.5H-N), which was then sealed with a gas-impermeable AlumaSeal II film (Hampton Research, HR8-069) to prevent desiccation and incubated at RT for 24 h. Before each assay, the resulting gels were equilibrated overnight at RT in a 100-fold excess of Assay Buffer (25 mM HEPES·NaOH pH 7.8 at RT, 150 mM NaCl and 1 mM TCEP). A 0.5 µM solution of fluorescently labelled protein in Assay Buffer was then added to the samples, with or without additional components at the concentrations indicated in the text, and incubated at RT. Gels were imaged at the times indicated in the text using a Nikon A1R point-scanning confocal system consisting of an inverted Nikon Eclipse Ti microscope and a Nikon ×20 0.75 NA Plan Apo air objective. The objective was centred on the gel edge and focus was maintained 5 µm above the glass surface using the Nikon Perfect Focus System. Fluorescence was excited through a 405/488/561/647 quad-band dichroic (Chroma), using a 488-nm solid-state laser (Coherent) and a galvano scanner. A 50-nm emission band was collected on a gallium arsenide phosphide detector, using an ET525/50m (525 ± 25 nm) single-band bandpass filter (Chroma) and a pinhole dilated to 0.9 Airy units. Images were acquired using the Nikon NIS-Elements software with a pixel size of 1 µm and a 12-bit digitizer. Imaging parameters were configured to maximize the SNR while avoiding saturation. All samples intended to be compared were imaged using identical acquisition settings.

[2] = system: PEX5–GFP influx into YG hydrogel; assay: Influx of PEX5–GFP into YG hydrogel in the presence of PEX39 (Fig. 6h); format: biochemical, Xenopus laevis
Method: Fig. 6 PEX39 can extract PEX7 from the YG phase. a, YG hydrogels were prepared in a glass-bottomed dish and pre-equilibrated with PEX7–GFP. PEX39 was then added to the buffer and a point-scanning confocal microscope was used to follow the PEX7–GFP fluorescence over time. b, PEX7–GFP signal in the gel over time at the indicated molar ratios of wild-type PEX39 (relative to PEX7). […] The effect of PEX39 on the influx of PEX7–GFP into the gel was then assessed using a point-scanning confocal microscope. g, PEX7–GFP influx in the presence of the indicated molar ratios of wild-type PEX39 (relative to PEX7) with or without a fourfold excess of PTS2 peptide and either PEX5S or PEX5-21. […]
A solution of the purified wild-type YG-domain polypeptide (or the variant lacking the KPWE motif) was concentrated to 2 mM in 50 mM HEPES·NaOH pH 7.8 at RT, 2 M urea and 2 mM TCEP. […] Fluorescence was excited through a 405/488/561/647 quad-band dichroic (Chroma), using a 488-nm solid-state laser (Coherent) and a galvano scanner. […]

PEX5–GFP in YG hydrogel = assay: YG hydrogel release assay, PEX5–GFP (Fig. 6d); format: biochemical; settings: fourfold excess of PEX39
Method: YG hydrogels were prepared in a glass-bottomed plate as described earlier and equilibrated for 3 h at RT in Assay Buffer containing 0.5 µM PEX7–GFP or PEX5–GFP with or without PTS2 peptide and receptor at the concentrations specified in the text. Following the initial incubation, the hydrogels were imaged on a Nikon A1R point-scanning confocal system, as described earlier, with a Nikon ×10 0.45 NA Plan Apo air objective, a pinhole dilated to 1.4 Airy units and a pixel size of 2 µm. A solution of purified PEX39 was then spiked into each reaction and the hydrogels imaged every 2 min for an additional 1 h at RT.
For the PEX7-release assay from YG hydrogels, the total fluorescence within a 30-µm-wide band in the gel extending for 150 µm from the gel edge into the gel was measured at each time point. This distance was sufficient to fully encompass the permeation front of each fluorescent species. The resulting values were then normalized to the total fluorescence inside the gel at the start of the experiment and plotted as a function of time.

[3] = system: PEX7–receptor–cargo complex on PEX39-coated beads; assay: Bead-binding assay: recruitment of PEX7–receptor–cargo complex to PEX39-coated beads (Fig. 7d, 8a); set-up: species or system yeast (S. cerevisiae); settings: no peptide, Fig. 7d
From the text: Cysteine-containing peptides were covalently conjugated to thiol-reactive SulfoLink coupling resin (Thermo Fisher, catalogue number 20401) according to the manufacturer’s instructions. The prepared beads were then mixed with Assay Buffer containing the fluorescently labelled protein as well as additional components indicated in the text, and the resulting bead suspensions were transferred to a 384-well glass-bottomed plate (Cellvis, P384-1.5H-N). GST-fusion proteins were instead mixed with glutathione agarose 4B (Prometheus, 20-543) in Assay Buffer containing the fluorescently labelled protein and additional components indicated in the text; the resulting bead suspensions were then transferred to a glass-bottomed plate as above. The plates were incubated at RT for the durations specified in the text and directly imaged on the spinning-disk confocal platform described earlier for peroxisomal import reactions in Xenopus egg extract. Note that imaging the beads directly in the binding reaction preserves the equilibrium and thereby allows even weak interactions to be detected. Fluorescence was collected through a Nikon ×10 0.45 NA Plan Apo air objective, and images were acquired using the Nikon NIS-Elements software and a 16-bit digitizer without binning. Imaging parameters were configured to maximize the SNR while avoiding saturation. Samples intended to be compared were imaged using identical acquisition settings.

B1: PEX39 (WT): PEX39 from S. cerevisiae (GenBank accession no. NP_012546.4) (protein)
chain: MAAGGELSYEELLDHILNNKPIPNIVEVPNVTLDEGLASTPSLRPRPRPWEGQLQHQSHQGSLDKPNISLDIDQESLEGMTSLTRLSECYDIQSKLQINDSDNDNDDNNNDNNKGDGNDDDNNTVTANPTAR
modifications: left off: GST, N-terminal, cleaved
[1]; PEX7–GFP alone or with PTS2 peptide and PEX5S
  Effect on influx of PEX7–GFP into YG hydrogel: blocked the influx of PEX7–GFP alone as well as PEX7–GFP in the presence of a PTS2 peptide and PEX5S
[1]; PEX7–GFP in complex with PTS2 peptide and PEX5-21
  Effect on influx of PEX7–GFP into YG hydrogel, PEX5-21 complex: much less inhibitory
[1]; PEX39 1×, replicate 1
  Percent PEX7-GFP influx (+ PTS2 peptide + PEX5-21): 66.880%
  Percent PEX7-GFP influx (+ PTS2 peptide + PEX5S): 23.191%
  Percent PEX7-GFP influx: 49.645%
[1]; PEX39 1×, replicate 2
  Percent PEX7-GFP influx (+ PTS2 peptide + PEX5-21): 83.899%
  Percent PEX7-GFP influx (+ PTS2 peptide + PEX5S): 21.558%
  Percent PEX7-GFP influx: 60.527%
[1]; PEX39 1×, replicate 3
  Percent PEX7-GFP influx (+ PTS2 peptide + PEX5-21): 114.523%
  Percent PEX7-GFP influx (+ PTS2 peptide + PEX5S): 32.481%
  Percent PEX7-GFP influx: 62.401%
[1]; PEX39 2×, replicate 1
  Percent PEX7-GFP influx (+ PTS2 peptide + PEX5-21): 50.795%
  Percent PEX7-GFP influx (+ PTS2 peptide + PEX5S): 5.154%
  Percent PEX7-GFP influx: 14.576%
[1]; PEX39 2×, replicate 2
  Percent PEX7-GFP influx (+ PTS2 peptide + PEX5-21): 68.223%
  Percent PEX7-GFP influx (+ PTS2 peptide + PEX5S): 5.013%
  Percent PEX7-GFP influx: 15.433%
[1]; PEX39 2×, replicate 3
  Percent PEX7-GFP influx (+ PTS2 peptide + PEX5-21): 111.257%
  Percent PEX7-GFP influx (+ PTS2 peptide + PEX5S): 4.961%
  Percent PEX7-GFP influx: 14.730%
[1]; PEX39 4×, replicate 1
  Percent PEX7-GFP influx (+ PTS2 peptide + PEX5-21): 53.842%
  Percent PEX7-GFP influx (+ PTS2 peptide + PEX5S): 2.693%
[1]; PEX39 4×, replicate 2
  Percent PEX7-GFP influx (+ PTS2 peptide + PEX5-21): 47.057%
  Percent PEX7-GFP influx (+ PTS2 peptide + PEX5S): 2.263%
[1]; PEX39 4×, replicate 3
  Percent PEX7-GFP influx (+ PTS2 peptide + PEX5-21): 58.495%
  Percent PEX7-GFP influx (+ PTS2 peptide + PEX5S): 2.329%
[1]; PEX39 at 4× molar ratio, replicate 1
  Percent PEX7-GFP influx: 7.357%
[1]; PEX39 at 4× molar ratio, replicate 2
  Percent PEX7-GFP influx: 5.802%
[1]; PEX39 at 4× molar ratio, replicate 3
  Percent PEX7-GFP influx: 7.696%
[2]
  Effect on influx of PEX5–GFP into YG hydrogel: did not prevent the influx of PEX5–GFP
PEX5–GFP in YG hydrogel
  Extraction of PEX5–GFP from YG hydrogel: unable to extract PEX5–GFP from the hydrogel
[3]
  Recruitment of PEX7–PEX5-21–PTS2–GFP complex to PEX39-coated beads: could be recruited to beads coated with wild-type PEX39
